19 molecules from US20240101668A1 (WUGEN, published 2024) can be followed below.

Assay [1] has as its target T1, huFLT3-M227 stably expressed on Ramos cells (human, UniProt P36888 27-993).
T1 construct: whole, on cells; also called FLT3 Mutant
The experiment in a line: FACS on cells.

In assay [2] the target is T2, huFLT3-T227 stably expressed on Ramos cells (human, UniProt P36888 27-993).
T2 construct: whole, on cells; also called FLT3 WT
Description: FACS on cells.

Changes are numbered by the printed parent chain.

B1: Polypeptide No. 278 (scFv, V domains shown)
VH: QVQLVQSGAEVKKPGASVKVSCKASGYTFTSYYMHWVRQAPGQGLEWMGIINPSSGSTTYAQKFQGRVTMTRDTSTSTVYMELSSLRSEDTAVYYCARSVGATSAFDIWGQGTMVTVSS
VL: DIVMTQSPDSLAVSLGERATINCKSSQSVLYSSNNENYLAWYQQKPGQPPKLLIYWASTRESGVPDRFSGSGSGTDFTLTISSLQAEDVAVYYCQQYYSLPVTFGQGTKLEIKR
notes: scFv
As for B1, the “FACS geometric mean fold change over Jurkat parental” value (shortened to “FACS geometric mean fold change”) in assay [1] and in assay [2] was greater than 30 fold throughout.

B2: Polypeptide No. 246 (scFv, V domains shown)
VH: QVQLVQSGAEVKKPGSSVKVSCKASGGTFTSYFMHWVRQAPGQGLEWMGGIIPMFGAPVYAQDFQGRVTITADESTSTAYMELSSLRSEDTAVYYCAAGLDFWSGPDNYYMDVWGKGTTVTVSS
VL: DIQMTQSPSSLSASVGDRVTITCQATQDISNYLNWYQQKPGKAPKLLIYGASNLPSGVPSRFSGSGSGTDFTLTISSLQPEDFATYYCQQSYSDLLTFGPGTKVDIKR
notes: scFv
Regarding B2, the “FACS geometric mean fold change” value was in the range of 2 to 10 fold in assay [1] and 10 to 30 fold in assay [2].

B3: Polypeptide No. 256 (scFv, V domains shown)
VH: QVQLVQSGAEVKKPGASVKVSCKASGYTFATYYLHWVRQAPGQGLEWMGMINPSGGSTIYAQKFQGRVTMTRDTSTSTVYMELSSLRSEDTAVYYCARSSGYDFFDYWGQGTLVTVSS
VL: DIQMTQSPSSLSASVGDRVTITCRASHDINNYLNWYQQKPGKAPKLLIYDASNLETGVPSRFSGSGSGTDFTLTISSLQPEDFATYYCQQADSFPLTFGGGTKVEIKR
notes: scFv
For the molecule B3, the “FACS geometric mean fold change” value in assay [1] and in assay [2] was greater than 30 fold throughout.

B4: Polypeptide No. 270 (scFv, V domains shown)
VH: QVQLVQSGAEVKKPGASVKVSCKASGGTFSSYYMHWVRQAPGQGLEWMGWISAYNGNTNYAQKLQGRVTMTRDTSTSTVYMELSSLRSEDTAVYYCAKDMGYYYDSSGGFDYWGQGTLVTVSS
VL: B3 VL with H27Q, D28S, N30S, N31S, A91T, D92Y, S93T, F94T, G100Q
notes: scFv
Turning to B4, the “FACS geometric mean fold change” value in assay [1] and in assay [2] was 10 to 30 fold throughout.

B5: Polypeptide No. 290 (scFv, V domains shown)
VH: B4 VH with S30T, N57K, N59D, L64F, K98R, M100Q, G109A, Y112I
VL: B3 VL with H27Q, D28S, N30S, N31S, A91T, D92Y, F94A, L96P, G100Q, V104L
notes: scFv
B5: the “FACS geometric mean fold change” value in assay [1] and in assay [2] was 10 to 30 fold throughout.

B6: Polypeptide No. 244 (scFv, V domains shown)
VH: QVQLVQSGAEVKKPGASVKVSCKASGYTFTSYYMHWVRQAPGQGLEWMGRINPSGGSTSYAQSFQGRVTMTRDTSTSTVYMELSSLRSEDTAVYYCARVPGLYGGAIDYWGQGTLVTVSS
VL: DIQMTQSPSSLSASVGDRVTITCRASQDIRNDLGWYQQKPGKAPKLLIYAASSLQSGVPSRFSGSGSGTDFTLTISSLQPEDFATYYCQQSYSSPFTFGQGTKVEIKR
notes: scFv
As to B6, the “FACS geometric mean fold change” value in assay [1] and in assay [2] was greater than 30 fold throughout.

B7: Polypeptide No. 248 (scFv, V domains shown)
VH: QVQLVQSGAEVKKPGASVKVSCKASGYTFTGYYMHWVRQAPGQGLEWMGVINPNGGSISYAQKFQGRVTMTRDTSTSTVYMELSSLRSEDTAVYYCAREGWFGEDGMDVWGQGTTVTVSS
VL: B6 VL with I29L, R30D, N31R, D32Y, G34A, S56T, S91Y, S94T, F96Y, V104L
notes: scFv
Consider B7, for which the “FACS geometric mean fold change” value in assay [1] and in assay [2] was 2 to 10 fold throughout.

B8: Polypeptide No. 257 (scFv, V domains shown)
VH: QVQLVQSGAEVKKPGASVKVSCKASGYTFTNYFMHWVRQAPGQGLEWMGIINPSGGSTSYAQKFQGRVTMTRDTSTSTVYMELSSLRSEDTAVYYCARAHTVYYYGMDVWGQGTMVTVSS
VL: B6 VL with D28S, R30S, N31S, D32W, G34A, S53T, S94T, F96W, V104L
notes: scFv
In the case of B8, the “FACS geometric mean fold change” value in assay [1] and in assay [2] was 10 to 30 fold in each case.

B9: Polypeptide No. 254 (scFv, V domains shown)
VH: QVQLVQSGAEVKKPGASVKVSCKASGYTFTSHYMHWVRQAPGQGLEWMGWISPYNGNTNYAQKLQGRVTMTRDTSTSTVYMELSSLRSEDTAVYYCARGESNSGWINFDYWGQGTLVTVSS
VL: EIVMTQSPATLSVSPGERATLSCRASQSVSSSSLAWYQQKPGQAPRLLIYDTSTRATGIPARFSGSGSGTEFTLTISSLQSEDFAVYYCQQYGTSPITFGQGTRLEIKR
notes: scFv
On to B9, for which the “FACS geometric mean fold change” value lay in the range of 2 to 10 fold in assay [1] and 10 to 30 fold in assay [2].

B10: Polypeptide No. 273 (scFv, V domains shown)
VH: QVQLVQSGAEVKKPGSSVKVSCKASGDTFNSYAVNWVRQAPGQGLEWMGGIIPSFGTPTYAWKFQGRVTITADESTSTAYMELSSLRSEDTAVYYCASVSYGSFDYWGQGTLVTVSS
VL: B9 VL with T52A, T57S, G93N, T94R, S95L, I97Y, R104K
notes: scFv
As to B10, the “FACS geometric mean fold change” value in assay [1] and in assay [2] was 10 to 30 fold each time.

B11: Polypeptide No. 265 (scFv, V domains shown)
VH: QVQLVQSGAEVKKPGSSVKVSCKASGHTFTSDYMHWVRQAPGQGLEWMGRIIPIFGTADYAQKFQGRVTITADESTSTAYMELSSLRSEDTAVYYCARDDSSGIFDYWGQGTLVTVSS
VL: B9 VL with S30N, S32E, S33H, T54S, T94S, I97V, R104K, L105V
notes: scFv
On to B11, for which the “FACS geometric mean fold change” value in assay [1] and in assay [2] was 10 to 30 fold throughout.

B12: Polypeptide No. 280 (scFv, V domains shown)
VH: QVQLVQSGAEVKKPGASVKVSCKASGYTFTRYYMHWVRQAPGQGLEWMGIINPSGGSTSYAQKFQGRVTMTRDTSTSTVYMELSSLRSEDTAVYYCARGETRSYAPYGMDVWGQGTTVTVSS
VL: DIQMTQSPSSLSASVGDRVTITCQASQDISNYLNWYQQKPGKAPKLLIYQASNKDTGVPSRFSGSGSGTDFTLTISSLQPEDFATYYCQQSYSTPPTFGQGTKLEIKR
notes: scFv
Turning to B12, the “FACS geometric mean fold change” value in assay [1] and in assay [2] was greater than 30 fold in each case.

B13: Polypeptide No. 247 (scFv, V domains shown)
VH: QVQLVQSGAEVKKPGASVKVSCKASGGTLMSYAISWVRQAPGQGLEWMGIINPRGGTTRYAQKFQGRVTMTRDTSTSTVYMELSSLRSEDTAVYYCARSEDSGYDYLDYWGQGTLVTVSS
VL: EIVMTQSPATLSVSPGERATLSCRGSQSISGNYLAWYQQKPGQAPRLLIYDTSARAAGIPARFSGSGSGTEFTLTISSLQSEDFAVYYCQQYNSYPLTFGGGTKVEIKR
notes: scFv
B13: the “FACS geometric mean fold change” value in assay [1] and in assay [2] was 2 to 10 fold throughout.

B14: Polypeptide No. 269 (scFv, V domains shown)
VH: QVQLVQSGAEVKKPGASVKVSCKASGGSFSSYALHWVRQAPGQGLEWMGLINPSGGRTSYAQKFQGRVTMTRDTSTSTVYMELSSLRSEDTAVYYCARDEGYATFDYWGQGTLVTVSS
VL: B13 VL with G25A, G31S, N32S, T52V, A57T, N93Y, Y95T, G101P, E106D
notes: scFv
As for B14, the “FACS geometric mean fold change” value in assay [1] and in assay [2] was 10 to 30 fold throughout.

B15: Polypeptide No. 262 (scFv, V domains shown)
VH: QVQLVQSGAEVKKPGASVKVSCKASGFTFSDYGYYMHWVRQAPGQGLEWMGWMDPSSGHTGYAQRFQGRVTMTRDTSTSTVYMELSSLRSEDTAVYYCAKDIGWGAFDIWGQGTTVTVSS
VL: B13 VL with G25A, S28R, I29V, S30G, G31N, N32T, T52V, A57S, N93L, Y95P
notes: scFv
For the molecule B15, the “FACS geometric mean fold change” value in assay [1] and in assay [2] was 10 to 30 fold each time.

B16: Polypeptide No. 249 (scFv, V domains shown)
VH: QVQLVQSGAEVKKPGASVKVSCKASGYTFTSDGISWVRQAPGQGLEWMGWMNPNSGNAGYAQKFQGRVTMTRDTSTSTVYMELSSLRSEDTAVYYCATAVAGTDAFDIWGQGTMVTVSS
VL: EIVMTQSPATLSVSPGERATLSCRASQSIGNNLKAWYQQKPGQAPRLLIYDTSAHTTGIPARFSGSGSGTEFTLTISSLQSEDFAVYYCQHYGNSLTFGQGTKVEIK
notes: scFv
Consider B16, for which the “FACS geometric mean fold change” value in assay [1] and in assay [2] was 2 to 10 fold each time.

B17: Polypeptide No. 260 (scFv, V domains shown)
VH: QVQLVQSGAEVKKPGASVKVSCKASGYTFTNYYVHWVRQAPGQGLEWMGMINPSGGSTNYAQKFQGRVTMTRDTSTSTVYMELSSLRSEDTAVYYCARVSGWKRGWFDPWGQGTLVTVSS
VL: DIQMTQSPSSLSASVGDRVTITCRSSQSISTYLNWYQQKPGKAPKLLIYGASNLQSGVPSRFSGSGSGTDFTLTISSLQPEDFATYYCQQVISYPITFGGGTKVEIKR
notes: scFv
As for B17, the “FACS geometric mean fold change” value in assay [1] and in assay [2] was greater than 30 fold throughout.

B18: Polypeptide No. 253 (scFv, V domains shown)
VH: QVQLVQSGAEVKKPGSSVKVSCKASGYTFTTYFMHWVRQAPGQGLEWMGGIVPVFGTTKYAQKFQGRVTITADESTSTAYMELSSLRSEDTAVYYCASSAVGWFDPWGQGTLVTVSS
VL: DIQMTQSPSSLSASVGDRVTITCRASQDISRWLAWYQQKPGKAPKLLIYAASSLQSGVPSRFSGSGSGTDFTLTISSLQPEDFATYYCQQYDNFPLTFGGGTKLEIKR
notes: scFv
Consider B18, for which the “FACS geometric mean fold change” value in assay [1] and in assay [2] was 2 to 10 fold each time.

B19: Polypeptide No. 259 (scFv, V domains shown)
VH: QVQLVQSGAEVKKPGSSVKVSCKASGYTFTSSEINWVRQAPGQGLEWMGGIHPMFGTTNYAQKFQGRVTITADESTSTAYMELSSLRSEDTAVYYCARARLMVYAPSDYWGQGTLVTVSS
VL: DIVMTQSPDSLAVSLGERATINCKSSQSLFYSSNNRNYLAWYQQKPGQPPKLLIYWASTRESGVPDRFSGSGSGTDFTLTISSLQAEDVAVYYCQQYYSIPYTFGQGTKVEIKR
notes: scFv
For the molecule B19, the “FACS geometric mean fold change” value in assay [1] and in assay [2] was 10 to 30 fold in each case.
